According to patent US11712410 (K18, dated 2023):
No end group written: not given here.

B1: Aquis Pep1 (peptide)
peptide: FCGFPSCSTSG
notes: also called Aquis peptide 1; Peptide Aquis 1
B2: KP (peptide)
peptide: GGVCGPSPPCITT
modifications: not fully specified; cysteine pairing not given here
notes: Control peptide developed by Khairpep; also called KP peptide; third peptide
B3: Aquis Pep 2 (peptide)
peptide: CTPPSCCQLHHA
notes: also called Aquis peptide 2; Peptide Aquis 2

What follows are binders tested against T1, Hair Keratin KRTHB1 Basic (UniProt Q14533 304-505, limits assumed) (assay: SPRi (PlexArray HT), keratin printed on the gold chip, peptide injected; kinetic fit with BIAevaluation 4.1; five curves labelled 5.68 to 91.2 nM).
T1 construct: The keratin was printed onto a bare gold SPRi chip; also called natural hair keratin
T1 sequence (looked up): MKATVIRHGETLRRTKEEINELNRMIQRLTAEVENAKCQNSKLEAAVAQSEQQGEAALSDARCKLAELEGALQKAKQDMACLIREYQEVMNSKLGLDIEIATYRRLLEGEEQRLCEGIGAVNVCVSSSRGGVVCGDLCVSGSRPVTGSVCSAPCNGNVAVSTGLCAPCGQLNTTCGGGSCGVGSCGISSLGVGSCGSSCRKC
Procedure: (§1) Various concentrations of Keratin dissolved in water were manually printed onto the bare gold coated (thickness 47 nm) PlexArray Nanocapture Sensor Chip (Plexera Bioscience, Seattle, Wash., US) at 40% humidity. Each concentration was printed in replicate, and each spot contained 0.2 uL of […] solution. The chip was incubated in 80% humidity at 4° C. for overnight, and rinsed with 10×PBST for 10 min, 1×PBST for 10 min, and deionized water twice for 10 min. The chip was then blocked with 5% (w/v) non-fat milk in water overnight, and washed with 10×PBST for 10 min, 1×PBST for 10 min, and deionized water twice for 10 min before being dried under a stream of nitrogen prior to use. SPRi measurements were performed with PlexAray HT (Plexera Bioscience, Seattle, Wash., US). Collimated light (660 nm) passes through the coupling prism, reflects off the SPR-active gold surface, and is received the CCD camera. Buffers and samples were injected by a non-pulsatile piston pump into the 30 uL flowcell that was mounted on the coupling prim. Each measurement cycle contained four steps: washing with PBST running buffer at a constant rate of 2 uL/s to obtain a stable baseline, sample injection at 5 uL/s for binding, surface washing with PBST at 2 uL/s for 300 s, and regeneration with 0.5% (v/v) H3PO4 at 2 uL/s for 300 s. All the measurements were performed at 4° C. The signal changes after binding and washing (in AU) are recorded as the assay value. Selected protein-grafted regions in the SPR images were analyzed, and the average reflectivity variations of the chosen areas were plotted as a function of time. Real-time binding signals were recorded and analyzed by Data Analysis Module (DAM, Plexera Bioscience, Seattle, Wash., US). Kinetic analysis was performed using BIAevaluation 4.1 software (Biacore, Inc.).

| Binder | koff [s⁻¹] | kon [M⁻¹ s⁻¹] |
| --- | --- | --- |
| B1 | 0.000478 | 1310 |
| B2 | 0.00692 | 8500 |
| B3 | 0.0206 | 8240 |

Each binder was assayed against T1, Hair Keratin KRTHB1 Basic (assay: SPRi (PlexArray HT), keratin printed on gold chip, peptide injected, 4 C).
Procedure: as §1

| Binder | Kd [nM] |
| --- | --- |
| B1 | 365 |
| B2 | 814 |
| B3 | 2500 |

Each binder was assayed against T1, Hair Keratin KRTHB1 Basic (assay: SPRi (PlexArray HT), rank among the three peptides tested on keratin).
Procedure: as §1

| Binder | Affinity Ranking |
| --- | --- |
| B1 | 1 |
| B2 | 2 |
| B3 | 3 |
